Legend:
Format in all cases: cell-based, human
[1] = test system: EGFP reporter (TetO7) in HEK293T cells; test: Multi-TAD effectors fused to PYL1 recruited to EGFP reporter; conditions: PYL1 fusion, 1 μM abscisic acid, 24 or 48 hours
Procedure: Multiple TADs were fused together with PYL1 and tested for transcriptional activity using the PYL1-ABI EGFP reporter system described above. The following TAD fragments were used: CITED1-8 (SEQ ID NO: 47), CITED2-12 (SEQ ID NO: 49), C3orf62-12 (SEQ ID NO: 45), BRD8-25 (SEQ ID NO: 40), ZXDC-12 (SEQ ID NO: 97), KLF7-1 (SEQ ID NO: 72), ATXN7L3-1 (SEQ ID NO: 35), FAM90A1-20 (SEQ ID NO: 60), SPDYE4-3 (SEQ ID NO: 90), YAF2-7 (SEQ ID NO: 96).
Methods: Cells were seeded on 48-well plates. Next day, after cells were between 70-90% confluent, 250 ng of each construct was transfected in each well using (Thermo Fisher Scientific, 11668019) reagent. Each construct was either directly fused TagRFP either directly fused to each component or being co-expressed from the same plasmid was used as a measure of transfection. In each experiment, the same gate for RFP+ cells were used to control for the effect of each construct's expression levels on activity. EGFP reporter cells were expanded from a clonal line to control for level of ABI-dCas9 and gRNA targeting the TetO7 sites upstream of the promoter. For the CD133 induction experiment, a 293T cell line stably expressing ABI-dCas9 and a pool of 5 gRNAs targeting the promoter were used for all activators. CD133 antibody conjugated to APC (Miltenyi Biotec, 130-113-668) was used. […]

[2] = test system: 7×TetO-EGFP reporter in HEK293T cells; test: 117 effector domains with rTetR or dCas9 based recruitment systems; conditions: rTetR fusion (1 μg/ml doxycycline 48 hours) or PYL1 with dCas9-ABI1
Procedure: A further 117 different combinations of activation domains or fragments of individual activation domains were assayed by fusing them either to PYL1 (to test with the dCas9-ABI1 system) or to rTetR, a transcription factor that binds DNA in the presence of doxycycline. All constructs were tested with the same TetO reporter construct.
Methods: 200 ng of plasmid expressing super activators fused to rTetR in their C terminus and 50 ng DsRed was transfected into HEK293T cells stably expressing 7×TetO-EGFP reporter. One day after transfection, cells were treated with 1 μg/ml doxycycline for 48 hours. After the treatment, cells were analyzed by flow cytometry for EGFP expression

[3] = test system: promoter of CD133 gene in HEK293T cells; test: CD133 induction experiment; conditions: PYL1 fusion, 1 μM abscisic acid, pool of 5 gRNAs
Procedure: Up to 2 additional TADs selected from p65 and HSF1 were combined with SPDYE4-CITED1 TADs in different orders and tested for the ability to activate transcription of the PYL1-ABI EGFP reporter system (FIG. 17, left panel) or the endogenous CD133 gene (FIG. 17, right panel).
Methods: Cells were seeded on 48-well plates. Next day, after cells were between 70-90% confluent, 250 ng of each construct was transfected in each well using (Thermo Fisher Scientific, 11668019) reagent. Each construct was either directly fused TagRFP either directly fused to each component or being co-expressed from the same plasmid was used as a measure of transfection. In each experiment, the same gate for RFP+ cells were used to control for the effect of each construct's expression levels on activity. EGFP reporter cells were expanded from a clonal line to control for level of ABI-dCas9 and gRNA targeting the TetO7 sites upstream of the promoter. For the CD133 induction experiment, a 293T cell line stably expressing ABI-dCas9 and a pool of 5 gRNAs targeting the promoter were used for all activators. CD133 antibody conjugated to APC (Miltenyi Biotec, 130-113-668) was used. All activator constructs were fused to PYL1 at their C-terminus and were recruited to their targets by treating the cells with 1 μM abscisic acid for either 24 or 48 hours.

B1: SPDYE4-CITED1-P65-HSF1: multi-component effector of SPDYE4, CITED1, p65 and HSF1 activation domains (protein)
chain: MDPSPQPQSLGLKRKSEWSDESEEELEEELELERAPEPEDTWVVETLCGLKMKLKRKRASSGGSGGSESLSPSAGAQSPAIIDSDPVDEEVLMSLVVELGLDRANELPELWLGQNEFDFTADFPSSCGGSINSRSSGSPKKKRKVGSQYLPDTDDRHRIEEKRKRTYETFKSIMKKSPFSGPTDPRPPPRRIAVPSRSSASVPKPAPQPYPFTSSLSTINYDEFPTMVFPSGQISQASALAPAPPQVLPQAPAPAPAPAMVSALAQAPAPVPVLAPGPPQAVAPPAPKPTQAGEGTLSEALLQLQFDDEDLGALLGNSTDPAVFTDLASVDNSEFQQLLNQGIPVAPHTTEPMLMEYPEAITRLVTGAQRPPDPAPAPLGAPGLPNGLLSGDEDFSSIADMDFSALLGSGSGSGFSVDTSALLDLFSPSVTVPDMSLPDLDSSLASIQELLSPQEPPRPPEAENSSPDSGKQLVHYTAQPLFLLDPGSVDTGSNDLPVLFELGEGSYFSEGDGFAEDPTISLLTGSEPPKAKDPTVS
Q: What does the source list for B1?
A: transcriptional activation of EGFP reporter by TAD fusions [1]: most robust activation; activity of effector constructs on TetO reporter [2]: the most active constructs in the system; activation of endogenous CD133 gene [3]: most robust activation

— patent US20240309360A1, “TRANS-ACTIVATORS AND METHODS AND USE THEREOF” (THE GOVERNING COUNCIL OF THE UNIVERSITY OF TORONTO, priority 2021, published 2024)
